One molecule from US20140275490A1 can be followed below.

The target in assay [1] is human IL-23R-mouse Fc fusion protein (human; mouse) (UniProt Q5VWK5). Briefly: antigen ELISA, human IL-23R-Fc immobilized, HRP anti-human IgG, chemiluminescence.
Assay [2] concerns the target monkey IL-23R-mouse Fc fusion protein (monkey; mouse). Put plainly: antigen ELISA, monkey IL-23R-Fc immobilized, HRP anti-human IgG, chemiluminescence.
Assay [3] concerns the target human IL-23R (human) (UniProt Q5VWK5). Briefly: cell-based or functional assay.

Sequence of human IL-23R (human) (Q5VWK5 24-629 L310P limits assumed): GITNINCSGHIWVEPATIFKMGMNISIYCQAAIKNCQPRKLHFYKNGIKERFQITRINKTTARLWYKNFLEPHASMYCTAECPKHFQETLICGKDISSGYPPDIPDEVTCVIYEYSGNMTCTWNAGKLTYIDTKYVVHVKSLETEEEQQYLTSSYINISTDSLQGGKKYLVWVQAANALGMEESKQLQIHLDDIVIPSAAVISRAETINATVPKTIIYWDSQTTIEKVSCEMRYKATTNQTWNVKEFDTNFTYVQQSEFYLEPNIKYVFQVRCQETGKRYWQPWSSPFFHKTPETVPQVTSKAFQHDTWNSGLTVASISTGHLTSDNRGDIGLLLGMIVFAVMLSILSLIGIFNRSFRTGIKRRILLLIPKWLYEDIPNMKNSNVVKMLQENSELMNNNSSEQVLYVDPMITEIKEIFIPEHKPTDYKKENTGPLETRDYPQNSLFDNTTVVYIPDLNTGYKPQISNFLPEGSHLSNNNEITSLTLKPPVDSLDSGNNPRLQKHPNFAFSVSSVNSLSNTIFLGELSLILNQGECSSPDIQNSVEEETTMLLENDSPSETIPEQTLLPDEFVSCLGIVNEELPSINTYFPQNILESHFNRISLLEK
Sequence of human IL-23R-mouse Fc fusion protein (human; mouse) (Q5VWK5 24-353 L310P): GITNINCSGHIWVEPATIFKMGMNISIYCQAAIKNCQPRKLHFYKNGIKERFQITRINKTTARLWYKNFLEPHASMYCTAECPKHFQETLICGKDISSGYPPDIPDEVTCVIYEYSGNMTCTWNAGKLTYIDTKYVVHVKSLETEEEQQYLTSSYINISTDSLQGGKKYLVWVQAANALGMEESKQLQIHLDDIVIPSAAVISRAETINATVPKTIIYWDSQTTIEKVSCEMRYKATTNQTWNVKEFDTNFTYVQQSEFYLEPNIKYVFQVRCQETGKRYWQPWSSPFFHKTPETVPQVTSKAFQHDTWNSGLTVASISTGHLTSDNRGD

B1: hum20D7 (antibody, from another filing, V domains shown)
VH: QVQLVQSGAEVKKPGASVKVSCKASGYTFTNYAMNWVRQAPGQGLEWMGWINTYTGEPTYSDDFKGRVTFTLDTSTSTAYMELRSLRSDDTAVYYCARGGGYDEDYFDYWGQGTLVTVSS
VL: DIVMTQSPLSLPVTPGEPASISCKSSQSLFNTINQKTYLAWYLQKPGQSPQLLIYFASTRESGVPDRFSGSGSGTDFTLKISRVEAEDVGVYYCQQHYDTPWTFGQGTKVEIKR
Molecule B1 had a concentration giving a half-maximal response (EC50) in assay [1] of 0.0485 µg/mL. Moreover, the EC50 in assay [2] was above 10 µg/mL. In assay [3], this molecule gave an IC50, IL-23-stimulated STAT3 phosphorylation in CD4 lymphocytes of human whole blood of 0.01 µg/mL and an IC50, inhibition of human IL-23-inducible Kit-225 cell proliferation of 0.055 µg/mL.

The term EC50 denotes the concentration giving half of the maximal effect.
